According to patent US20230265151A1, “GIP/GLP1 CO-AGONIST COMPOUNDS” (priority 2020, published 2023):

B1: Example 334 (peptide)
peptide: YXEGTXTSDXXIXLDXKAQXEFIXXLIKGGPSSGAPPPS
modifications: Y-Aib-EGT-αMeF(2F)-TSD-4Pal-Aib-I-αMeL-LD-Orn-K((2-[2-(2-Amino-ethoxy)-ethoxy]-acetyl)2-(γ-Glu)-CO-(CH2)10-CH3)AQ-Aib-EFI-(D-Glu)-αMeY-LIK((2-[2-(2-Amino-ethoxy)-ethoxy]-acetyl)2-(γ-Glu)-CO-(CH2)10-CH3)GGPSSGAPPPS-NH2
B2: Example 395 (peptide)
peptide: YXEGTXTSDXXIXLDXKAQXEFIXXLIKGGPSSGAPPPS
modifications: Y-Aib-EGT-αMeF(2F)-TSD-4Pal-Aib-I-αMeL-LD-Orn-K((2-[2-(2-Amino-ethoxy)-ethoxy]-acetyl)2-(10-(4-carboxyphenoxy)decanoyl))AQ-Aib-EFI-(D-Glu)-αMeY-LIK((2-[2-(2-Amino-ethoxy)-ethoxy]-acetyl)2-(10-(4-carboxyphenoxy)decanoyl))GGPSSGAPPPS-NH2
B3: Example 423 (peptide)
peptide: YXEGTXTSDXXIXLDXKAQXEFIXXLIKGGPSSGAPPPS
modifications: Y-Aib-EGT-αMeF(2F)-TSD-4Pal-Aib-I-αMeL-LD-Orn-K((2-[2-(2-Amino-ethoxy)-ethoxy]-acetyl)3-(γ-Glu)-CO-(CH2)10-CH3)AQ-Aib-EFI-(D-Glu)-αMeY-LIK((2-[2-(2-Amino-ethoxy)-ethoxy]-acetyl)3-(γ-Glu)-CO-(CH2)10-CH3)GGPSSGAPPPS-NH2
B4: Example 408 (peptide)
peptide: YXEGTXTSDXXIXLDXKAQXKFIXXLIXGGPSSGAPPPS
modifications: Y-Aib-EGT-αMeF(2F)-TSD-4Pal-Aib-I-αMeL-LD-Orn-K((2-[2-(2-Amino-ethoxy)-ethoxy]-acetyl)2-(γ-Glu)-(10-(4-carboxyphenoxy)decanoyl))AQ-Aib-K((2-[2-(2-Amino-ethoxy)-ethoxy]-acetyl)2-(γ-Glu)-(10-(4-carboxyphenoxy)decanoyl))FI-(D-Glu)-αMeY-LI-Orn-GGPSSGAPPPS-NH2
B5: Example 427 (peptide)
peptide: YXEGTXTSDXXIXLDXKAQXEFIXXLIKGGPSSGAPPPS
modifications: Y-Aib-EGT-αMeF(2F)-TSD-4Pal-Aib-I-αMeL-LD-Orn-K((2-[2-(2-Amino-ethoxy)-ethoxy]-acetyl)-(γ-Glu)-CO-(CH2)10-CH3)AQ-Aib-EFI-(D-Glu)-αMeY-LIK((2-[2-(2-Amino-ethoxy)-ethoxy]-acetyl)-(γ-Glu)-CO-(CH2)10-CH3)GGPSSGAPPPS-NH2
B6: Example 406 (peptide)
peptide: YXEGTXTSDXXIXLDXKAQXKFIXXLIXGGPSSGAPPPS
modifications: Y-Aib-EGT-αMeF(2F)-TSD-4Pal-Aib-I-αMeL-LD-Orn-K((2-[2-(2-Amino-ethoxy)-ethoxy]-acetyl)2-(γ-Glu)-CO-(CH2)12-CO2H)AQ-Aib-K((2-[2-(2-Amino-ethoxy)-ethoxy]-acetyl)2-(γ-Glu)-CO-(CH2)12-CO2H)FI-(D-Glu)-αMeY-LI-Orn-GGPSSGAPPPS-NH2
B7: Example 413 (peptide)
peptide: YXEGTXTSDXXIXLDXKAQXKFIXXLIXGGPSSGAPPPS
modifications: Y-Aib-EGT-αMeF(2F)-TSD-4Pal-Aib-I-αMeL-LD-Orn-K((2-[2-(2-Amino-ethoxy)-ethoxy]-acetyl)2-(γ-Glu)-CO-(CH2)10-CH3)AQ-Aib-K((2-[2-(2-Amino-ethoxy)-ethoxy]-acetyl)2-(γ-Glu)-CO-(CH2)10-CH3)FI-(D-Glu)-αMeY-LI-Orn-GGPSSGAPPPS-NH2
B8: Example 433 (peptide)
peptide: YXEGTXTSDXXIXLDXKAQXKFIXXLIXGGPSSGAPPPS
modifications: Y-Aib-EGT-αMeF(2F)-TSD-4Pal-Aib-I-αMeL-LD-Orn-K((2-[2-(2-Amino-ethoxy)-ethoxy]-acetyl)3-(γ-Glu)-CO-(CH2)10-CH3)AQ-Aib-K((2-[2-(2-Amino-ethoxy)-ethoxy]-acetyl)3-(γ-Glu)-CO-(CH2)10-CH3)FI-(D-Glu)-αMeY-LI-Orn-GGPSSGAPPPS-NH2
B9: Example 361 (peptide)
peptide: YXEGTXTSDXXIXLDXKAQXEFIXXLIKGGPSSGAPPPS
modifications: Y-Aib-EGT-αMeF(2F)-TSD-4Pal-Aib-I-αMeL-LD-Orn-K((2-[2-(2-Amino-ethoxy)-ethoxy]-acetyl)-(γ-Glu)-(10-(4-carboxyphenoxy)decanoyl))AQ-Aib-EFIe-αMeY-LIK((2-[2-(2-Amino-ethoxy)-ethoxy]-acetyl)-(γ-Glu)-(10-(4-carboxyphenoxy)decanoyl))GGPSSGAPPPS-NH2
B10: Example 358 (peptide)
peptide: YXEGTXTSDXXIXLDXKAQXEFIXXLIKGGPSSGAPPPS
modifications: Y-Aib-EGT-αMeF(2F)-TSD-4Pal-Aib-I-αMeL-LD-Orn-K((2-[2-(2-Amino-ethoxy)-ethoxy]-acetyl)2-(γ-Glu)-CO-(CH2)12-CO2H)AQ-Aib-EFI-(D-Glu)-αMeY-LIK((2-[2-(2-Amino-ethoxy)-ethoxy]-acetyl)2-(γ-Glu)-CO-(CH2)12-CO2H)GGPSSGAPPPS-NH2
B11: Example 387 (peptide)
peptide: YXEGTXTSDXXIXLDXKAQXEFIXXLIKGGPSSGAPPPS
modifications: Y-Aib-EGT-αMeF(2F)-TSD-4Pal-Aib-I-αMeL-LD-Orn-K((2-[2-(2-Amino-ethoxy)-ethoxy]-acetyl)2-CO-(CH2)12-CO2H)AQ-Aib-EFI-(D-Glu)-αMeY-LIK((2-[2-(2-Amino-ethoxy)-ethoxy]-acetyl)2-CO-(CH2)12-CO2H)GGPSSGAPPPS-NH2

Tests used:
Test in all cases: cell-based or functional assay
hGLP-1R = hGLP-1R (Homo sapiens, UniProt P43220)
[1] = molecular target: T1, human GIP receptor (human) (UniProt P48546)
T1 sequence (looked up): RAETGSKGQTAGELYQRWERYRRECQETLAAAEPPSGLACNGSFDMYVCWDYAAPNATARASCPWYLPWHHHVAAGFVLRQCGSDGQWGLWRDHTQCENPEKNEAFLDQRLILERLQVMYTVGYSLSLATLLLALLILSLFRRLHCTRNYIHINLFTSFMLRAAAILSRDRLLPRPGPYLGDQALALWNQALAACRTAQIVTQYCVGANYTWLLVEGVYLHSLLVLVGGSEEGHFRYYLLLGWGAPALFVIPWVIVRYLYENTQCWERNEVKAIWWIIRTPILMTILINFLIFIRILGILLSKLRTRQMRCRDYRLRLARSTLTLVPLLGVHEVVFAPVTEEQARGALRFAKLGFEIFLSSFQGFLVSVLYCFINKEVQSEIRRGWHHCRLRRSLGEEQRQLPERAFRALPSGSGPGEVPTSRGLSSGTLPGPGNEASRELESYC

[2] = molecular target: human glucagon receptor (human) (UniProt P47871)
human GIP receptor [3] = molecular target: T2, human GIP receptor (human, UniProt P48546 22-466)
T2 sequence (looked up): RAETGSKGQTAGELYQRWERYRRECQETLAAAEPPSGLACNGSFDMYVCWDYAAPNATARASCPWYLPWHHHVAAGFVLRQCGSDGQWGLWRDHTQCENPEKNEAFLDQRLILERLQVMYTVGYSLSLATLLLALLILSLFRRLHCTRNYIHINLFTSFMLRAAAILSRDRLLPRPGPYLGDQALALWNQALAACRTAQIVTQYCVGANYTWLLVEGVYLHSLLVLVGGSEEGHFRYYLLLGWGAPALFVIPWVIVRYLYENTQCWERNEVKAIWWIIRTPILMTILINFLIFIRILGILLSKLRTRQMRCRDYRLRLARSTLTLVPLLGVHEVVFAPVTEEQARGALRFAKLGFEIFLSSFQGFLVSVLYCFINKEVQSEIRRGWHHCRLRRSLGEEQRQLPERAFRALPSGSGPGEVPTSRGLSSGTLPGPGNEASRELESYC

human GLP-1 receptor [4] = molecular target: human GLP-1 receptor (human, UniProt P43220 24-463)
human GIP receptor [5] = molecular target: T3, human GIP receptor (human, UniProt P48546 22-466); remark: listed apart in the source
T3 sequence (looked up): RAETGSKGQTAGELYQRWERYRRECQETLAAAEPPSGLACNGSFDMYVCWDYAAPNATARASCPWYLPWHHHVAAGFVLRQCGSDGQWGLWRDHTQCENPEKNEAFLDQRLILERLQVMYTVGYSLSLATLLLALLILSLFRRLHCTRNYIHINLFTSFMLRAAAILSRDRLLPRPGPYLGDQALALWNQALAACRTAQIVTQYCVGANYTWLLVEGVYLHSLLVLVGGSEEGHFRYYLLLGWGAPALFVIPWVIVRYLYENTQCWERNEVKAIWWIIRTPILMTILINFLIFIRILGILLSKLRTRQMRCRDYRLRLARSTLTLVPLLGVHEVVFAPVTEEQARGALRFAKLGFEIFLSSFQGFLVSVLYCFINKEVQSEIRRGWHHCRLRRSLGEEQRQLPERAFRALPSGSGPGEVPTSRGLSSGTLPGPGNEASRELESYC

human GLP-1 receptor [6] = molecular target: human GLP-1 receptor (human, UniProt P43220 24-463); remark: listed apart in the source

| Binder | cAMP EC50 (hGLP-1R) | cAMP Emax (hGLP-1R) | cAMP EC50 [1] | cAMP Emax [1] | cAMP EC50 [2] | cAMP EC50 (1.0% HSA) (human GIP receptor [3]) | cAMP EC50 (1.0% HSA) (human GLP-1 receptor [4]) | cAMP EC50 (1.0% HSA) (human GIP receptor [5]) | cAMP Emax (1.0% HSA) (human GIP receptor [5]) | cAMP EC50 (1.0% HSA) (human GLP-1 receptor [6]) |
| --- | --- | --- | --- | --- | --- | --- | --- | --- | --- | --- |
| B1 | 0.131 nM | 104% | 0.00987 nM | 103% | > 9950 nM | 0.618 nM | 8.67 nM | – | – | – |
| B2 | 0.377 nM | 90.8% | 0.0127 nM | 93.1% | > 9950 nM | – | – | 0.327 nM | 57.8% | 6.26 nM |
| B3 | 0.0721 nM | 105% | 0.00658 nM | 104% | > 9950 nM | – | – | 0.294 nM | 89.7% | 4.74 nM |
| B4 | 0.227 nM | 102% | 0.00888 nM | 99.7% | > 9950 nM | – | – | 0.299 nM | – | 5.92 nM |
| B5 | 0.206 nM | 109% | 0.0132 nM | 95.9% | > 9950 nM | – | – | 2.04 nM | 92.4% | 25.1 nM |
| B6 | 0.351 nM | 98.5% | 0.00896 nM | 101% | > 9950 nM | – | – | 0.527 nM | – | 9.21 nM |
| B7 | 0.234 nM | 96.9% | 0.0146 nM | 101% | > 9950 nM | – | – | 0.422 nM | – | 5.47 nM |
| B8 | 0.128 nM | 102% | 0.00972 nM | 94% | > 9950 nM | – | – | 0.136 nM | – | 2.63 nM |
| B9 | 0.58 nM | 98.2% | 0.0121 nM | 107% | > 9950 nM | – | – | 1.44 nM | 88.8% | 43 nM |
| B10 | 0.773 nM | 107% | 0.0137 nM | 99.6% | > 10100 nM | – | – | 2.06 nM | 86.2% | 65.3 nM |
| B11 | 0.32 nM | 101% | 0.0137 nM | 102% | > 9950 nM | – | – | 0.278 nM | 93% | 4.4 nM |
